These results are taken from US20240417436A1.

The target of assay [1] is IL-2 receptor βγ complex on human cells (pan T cells, PBMC NK cells, NK92 PD1+ cells) (human) (UniProt P14784). The experiment in a line: cell-based or functional assay.
Assay [2] concerns the target IL-2 receptor βγ complex (CD122/CD132) on HEK-Blue IL-2Rβγ reporter cells (UniProt P14784). The experiment in a line: cell-based or functional assay.

Bridges are numbered along the chain shown (N, C = ends). Primed or numbered codes have the meaning given here. [ ]: non-standard residue; d: D form. Yn3(5) = tyrosine residue modified with an azide-capped PEG9 group (O-(PEG9-azido)-tyrosine); Ygp(5) = O-(8x polyethylene glycol-amino)-tyrosine (Tyr-PEG8-amine); Ygp = O-(8x polyethylene glycol-amino)-tyrosine; Yn3 = O-(9x polyethylene glycol-azido)-tyrosine; PEG9′ = polyethylene glycol spacer of 9 units; 4x polyethylene glycol = not defined here; hSer = N[C@@H](CCO)C(=O)O; Nle = CCCC[C@H](N)C(=O)O

Sequence of IL-2 receptor βγ complex on human cells (pan T cells, PBMC NK cells, NK92 PD1+ cells) (human) (P14784 27-551, chain 1 of 2): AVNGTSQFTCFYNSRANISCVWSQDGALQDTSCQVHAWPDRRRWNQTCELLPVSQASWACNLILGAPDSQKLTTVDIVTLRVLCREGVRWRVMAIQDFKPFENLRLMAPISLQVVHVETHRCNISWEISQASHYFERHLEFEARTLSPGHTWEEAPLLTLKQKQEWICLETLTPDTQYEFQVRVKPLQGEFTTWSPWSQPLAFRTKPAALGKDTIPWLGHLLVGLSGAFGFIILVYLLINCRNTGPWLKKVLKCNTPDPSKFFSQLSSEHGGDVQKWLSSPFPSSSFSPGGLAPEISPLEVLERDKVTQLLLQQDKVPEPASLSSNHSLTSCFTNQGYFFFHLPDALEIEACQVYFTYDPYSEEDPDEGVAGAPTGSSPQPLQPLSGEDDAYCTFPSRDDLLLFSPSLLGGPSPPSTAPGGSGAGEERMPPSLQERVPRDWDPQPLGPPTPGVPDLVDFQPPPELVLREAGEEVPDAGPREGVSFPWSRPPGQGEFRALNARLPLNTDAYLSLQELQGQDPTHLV
Sequence of IL-2 receptor βγ complex on human cells (pan T cells, PBMC NK cells, NK92 PD1+ cells) (human) (P31785 23-369, chain 2 of 2, further chain): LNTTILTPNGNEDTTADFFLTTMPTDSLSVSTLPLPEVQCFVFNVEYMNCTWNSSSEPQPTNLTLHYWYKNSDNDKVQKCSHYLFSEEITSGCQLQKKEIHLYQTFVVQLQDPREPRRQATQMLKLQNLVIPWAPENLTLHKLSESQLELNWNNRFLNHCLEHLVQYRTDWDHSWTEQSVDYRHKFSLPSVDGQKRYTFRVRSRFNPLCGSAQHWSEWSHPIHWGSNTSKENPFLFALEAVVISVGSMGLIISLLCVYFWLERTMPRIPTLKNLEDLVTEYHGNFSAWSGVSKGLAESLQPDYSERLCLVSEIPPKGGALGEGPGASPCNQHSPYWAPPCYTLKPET
Sequence of IL-2 receptor βγ complex (CD122/CD132) on HEK-Blue IL-2Rβγ reporter cells (P14784 27-551 limits assumed, chain 1 of 2): as the sequence (P14784 27-551, chain 1 of 2) above
Sequence of IL-2 receptor βγ complex (CD122/CD132) on HEK-Blue IL-2Rβγ reporter cells (P31785 23-369 limits assumed, chain 2 of 2, further chain): as the sequence (P31785 23-369, chain 2 of 2, further chain) above

B1: CMP-319, Matriptase cleaved molecule (ligand)
chain: RGRRVANLVGAPTSSSTKKTQLQLEHLLLDLQEILNGINNYKNPKLTR[Nle]L[hSer][Yn3(5)]KF[Ygp(5)][Nle]PKKATELKHLQCLEEELKPLEEVL[hSer]LAQSKNFHLRPRDLISNINVIVLELKGSETTF[hSer]CEYADETATIVEFLNRWITFSQSIISTLT
modifications: lactam N-33; also: treated with matriptase (cleavage site not given here)
In assay [1], B1 returned an Average EC50, pSTAT5 assay in NK cells of 0.804 nM. The molecule also gave an Average EC50, HEK-Blue IL-2R (CD122+, CD132+) reporter assay in assay [2] of 50.7 pM.

B2: CMP-319 (ligand)
chain: RGRRVANLVGAPTSSSTKKTQLQLEHLLLDLQEILNGINNYKNPKLTR[Nle]L[hSer][Yn3(5)]KF[Ygp(5)][Nle]PKKATELKHLQCLEEELKPLEEVL[hSer]LAQSKNFHLRPRDLISNINVIVLELKGSETTF[hSer]CEYADETATIVEFLNRWITFSQSIISTLT
modifications: lactam N-33
Turning to B2, the Average EC50, pSTAT5 assay in NK cells in assay [1] turned out to be 7.72 nM. The Average EC50, HEK-Blue IL-2R (CD122+, CD132+) reporter assay in assay [2] came out at 1050 pM.

B3: CMP-319, MMP2 cleaved molecule (ligand)
chain: RGRRVANLVGAPTSSSTKKTQLQLEHLLLDLQEILNGINNYKNPKLTR[Nle]L[hSer][Yn3(5)]KF[Ygp(5)][Nle]PKKATELKHLQCLEEELKPLEEVL[hSer]LAQSKNFHLRPRDLISNINVIVLELKGSETTF[hSer]CEYADETATIVEFLNRWITFSQSIISTLT
modifications: lactam N-33; also: treated with MMP2 (cleavage site not given here)
B3: the Average EC50, pSTAT5 assay in NK cells in assay [1] turned out to be 0.713 nM. In assay [2], this molecule displayed an Average EC50, HEK-Blue IL-2R (CD122+, CD132+) reporter assay of 49 pM.

B4: CMP-320, Matriptase cleaved molecule (ligand)
chain: SGRVAPQPLVDAPTSSSTKKTQLQLEHLLLDLQEILNGINNYKNPKLTR[Nle]L[hSer][Yn3(5)]KF[Ygp(5)][Nle]PKKATELKHLQCLEEELKPLEEVL[hSer]LAQSKNFHLRPRDLISNINVIVLELKGSETTF[hSer]CEYADETATIVEFLNRWITFSQSIISTLT
modifications: lactam N-34; also: treated with matriptase (cleavage site not given here)
B4: in assay [1], the Average EC50, pSTAT5 assay in NK cells worked out at 15.7 nM. In assay [2], the Average EC50, HEK-Blue IL-2R (CD122+, CD132+) reporter assay stood at 10800 pM.

B5: CMP-321 (ligand)
chain: SGRVQPLVDAPTSSSTKKTQLQLEHLLLDLQEILNGINNYKNPKLTR[Nle]L[hSer][Yn3(5)]KF[Ygp(5)][Nle]PKKATELKHLQCLEEELKPLEEVL[hSer]LAQSKNFHLRPRDLISNINVIVLELKGSETTF[hSer]CEYADETATIVEFLNRWITFSQSIISTLT
modifications: lactam N-32
Take B5: the Average EC50, pSTAT5 assay in NK cells in assay [1] amounted to 55.1 nM. Further, the Average EC50, HEK-Blue IL-2R (CD122+, CD132+) reporter assay in assay [2] came to 4200 pM.

B6: CMP-303 (ligand)
chain: PLGLAGAPTSSSTKKTQLQLEHLLLDLQEILNGINNYKNPKLTR[Nle]L[hSer][Yn3]KF[Ygp][Nle]PKKATELKHLQCLEEELKPLEEVL[hSer]LAQSKNFHLRPRDLISNINVIVLELKGSETTF[hSer]CEYADETATIVEFLNRWITFSQSIISTLT
modifications: linker (positions not given here) via 4x polyethylene glycol; not fully specified (bridges); reading uncertain; also: ring may run through the N-terminus of residue 1, not given here
Molecule B6 had an Average EC50, HEK-Blue IL-2R (CD122+, CD132+) reporter assay in assay [2] of 521 pM.

B7: CMP-318, Matriptase cleaved molecule (ligand)
chain: SGRVANLVGAPTSSSTKKTQLQLEHLLLDLQEILNGINNYKNPKLTR[Nle]L[hSer][Yn3(5)]KF[Ygp(5)][Nle]PKKATELKHLQCLEEELKPLEEVL[hSer]LAQSKNFHLRPRDLISNINVIVLELKGSETTF[hSer]CEYADETATIVEFLNRWITFSQSIISTLT
modifications: lactam N-32; also: treated with matriptase, cleavage site not given here
B7 registered an Average EC50, pSTAT5 assay in NK cells in assay [1] of 33.7 nM. In addition, in assay [2], the Average EC50, HEK-Blue IL-2R (CD122+, CD132+) reporter assay was 2470 pM.

B8: CMP-161 (ligand)
chain: PLGLAGAPTSSSTKKTQLQLEHLLLDLQ[Nle]ILEGINNYKNPKLTR[Nle]L[hSer][Yn3]KF[Ygp][Nle]PKKATELKHLQCLEEELKPLEEVL[hSer]LAQSKNFHLRPRDLISNINVIVLELKGSETTF[hSer]CEYADETATIVEFLNRWITFSQSIISTLT
modifications: bridge N-32; not fully specified (bridges)
With B8, the Average EC50, HEK-Blue IL-2R (CD122+, CD132+) reporter assay in assay [2] was 168 pM.

B9: CMP-152 (ligand)
chain: PLGLAGAPTSSSTKKTQLQLEHLLLDLQ[Nle]ILNGINNYKNPKLTR[Nle]L[hSer][Yn3]KF[Ygp][Nle]PKKATELKHLQCLEEELKPLEEVL[hSer]LAQSKNFHLRPRDLISNINVIVLELKGSETTF[hSer]CEYADETATIVEFLNRWITFSQSIISTLT
modifications: linker N-38 via 1,5‑pentanedioic acid‑9x polyethylene glycol linker
B9 registered an Average EC50, HEK-Blue IL-2R (CD122+, CD132+) reporter assay in assay [2] of 59.7 pM.

B10: CMP-321, MMP2 cleaved molecule (ligand)
chain: SGRVQPLVDAPTSSSTKKTQLQLEHLLLDLQEILNGINNYKNPKLTR[Nle]L[hSer][Yn3(5)]KF[Ygp(5)][Nle]PKKATELKHLQCLEEELKPLEEVL[hSer]LAQSKNFHLRPRDLISNINVIVLELKGSETTF[hSer]CEYADETATIVEFLNRWITFSQSIISTLT
modifications: lactam N-32; also: treated with MMP2 (cleavage site not given here)
Consider B10, for which, in assay [1], the Average EC50, pSTAT5 assay in NK cells was found to be 2.94 nM. For the same molecule, the Average EC50, HEK-Blue IL-2R (CD122+, CD132+) reporter assay in assay [2] was found to be 181 pM.

B11: CMP-321, Matriptase cleaved molecule (ligand)
chain: SGRVQPLVDAPTSSSTKKTQLQLEHLLLDLQEILNGINNYKNPKLTR[Nle]L[hSer][Yn3(5)]KF[Ygp(5)][Nle]PKKATELKHLQCLEEELKPLEEVL[hSer]LAQSKNFHLRPRDLISNINVIVLELKGSETTF[hSer]CEYADETATIVEFLNRWITFSQSIISTLT
modifications: lactam N-32; also: treated with matriptase (cleavage site not given here)
As to B11, the Average EC50, pSTAT5 assay in NK cells in assay [1] turned out to be 65.2 nM. This molecule also returned an Average EC50, HEK-Blue IL-2R (CD122+, CD132+) reporter assay in assay [2] of 4220 pM.

B12: CMP-159 (ligand)
chain: PLGLAGAPTSSSTKKTQLQLEHLLLDLE[Nle]ILNGINNYKNPKLTR[Nle]L[hSer][Yn3]KF[Ygp][Nle]PKKATELKHLQCLEEELKPLEEVL[hSer]LAQSKNFHLRPRDLISNINVIVLELKGSETTF[hSer]CEYADETATIVEFLNRWITFSQSIISTLT
modifications: linker N-28 via 4x polyethylene glycol; reading uncertain
With B12, the Average EC50, HEK-Blue IL-2R (CD122+, CD132+) reporter assay in assay [2] came to 192 pM.

B13: CMP-318, MMP2 cleaved molecule (ligand)
chain: SGRVANLVGAPTSSSTKKTQLQLEHLLLDLQEILNGINNYKNPKLTR[Nle]L[hSer][Yn3]KF[Ygp][Nle]PKKATELKHLQCLEEELKPLEEVL[hSer]LAQSKNFHLRPRDLISNINVIVLELKGSETTF[hSer]CEYADETATIVEFLNRWITFSQSIISTLT
modifications: not fully specified (bridges)
As to B13, the Average EC50, pSTAT5 assay in NK cells in assay [1] was 0.388 nM. The same molecule returned an Average EC50, HEK-Blue IL-2R (CD122+, CD132+) reporter assay in assay [2] of 25.9 pM.

B14: CMP-318 (ligand)
chain: SGRVANLVGAPTSSSTKKTQLQLEHLLLDLQEILNGINNYKNPKLTR[Nle]L[hSer][Yn3]KF[Ygp][Nle]PKKATELKHLQCLEEELKPLEEVL[hSer]LAQSKNFHLRPRDLISNINVIVLELKGSETTF[hSer]CEYADETATIVEFLNRWITFSQSIISTLT
modifications: lactam N-32
For B14, in assay [1], the Average EC50, pSTAT5 assay in NK cells was determined as 37.4 nM. In assay [2], this molecule came in with an Average EC50, HEK-Blue IL-2R (CD122+, CD132+) reporter assay of 3370 pM.

B15: CMP-304 (ligand)
chain: PLGLAGAPTSSSTKKTQLQLEHLLLDLQEILNGINNYKNPKLTR[Nle]L[hSer][Yn3]KF[Ygp][Nle]PKKATELKHLQCLEEELKPLEEVL[hSer]LAQSKNFHLRPRDLISNINVIVLELKGSETTF[hSer]CEYADETATIVEFLNRWITFSQSIISTLT
modifications: bridge N-29 via PEG9′
In assay [2], B15 showed an Average EC50, HEK-Blue IL-2R (CD122+, CD132+) reporter assay of 340 pM.

B16: CMP-154 (ligand)
chain: PLGLAGAPTSSSTKKTQLQLEHLLLDLQ[Nle]ILNGIENYKNPKLTR[Nle]L[hSer][Yn3]KF[Ygp][Nle]PKKATELKHLQCLEEELKPLEEVL[hSer]LAQSKNFHLRPRDLISNINVIVLELKGSETTF[hSer]CEYADETATIVEFLNRWITFSQSIISTLT
modifications: linker N-35 via 9x polyethylene glycol
B16 showed an Average EC50, HEK-Blue IL-2R (CD122+, CD132+) reporter assay in assay [2] of 106 pM.

B17: CMP-320 (ligand)
chain: SGRVAPQPLVDAPTSSSTKKTQLQLEHLLLDLQEILNGINNYKNPKLTR[Nle]L[hSer][Yn3(5)]KF[Ygp(5)][Nle]PKKATELKHLQCLEEELKPLEEVL[hSer]LAQSKNFHLRPRDLISNINVIVLELKGSETTF[hSer]CEYADETATIVEFLNRWITFSQSIISTLT
modifications: lactam N-34
B17 had an Average EC50, pSTAT5 assay in NK cells in assay [1] of 13.2 nM. This molecule also gave an Average EC50, HEK-Blue IL-2R (CD122+, CD132+) reporter assay in assay [2] of 775 pM.

B18: CMP-320, MMP2 cleaved molecule (ligand)
chain: SGRVAPQPLVDAPTSSSTKKTQLQLEHLLLDLQEILNGINNYKNPKLTR[Nle]L[hSer][Yn3(5)]KF[Ygp(5)][Nle]PKKATELKHLQCLEEELKPLEEVL[hSer]LAQSKNFHLRPRDLISNINVIVLELKGSETTF[hSer]CEYADETATIVEFLNRWITFSQSIISTLT
modifications: lactam N-34; also: treated with MMP2 (cleavage site not given here)
As to B18, the Average EC50, pSTAT5 assay in NK cells in assay [1] amounted to 0.571 nM. Also, the Average EC50, HEK-Blue IL-2R (CD122+, CD132+) reporter assay in assay [2] was 39.2 pM.

B19: CMP-302 (ligand)
chain: GPLGLAGAPTSSSTKKTQLQLEHLLLDLQEILNGINNYKNPKLTR[Nle]L[hSer][Yn3]KF[Ygp][Nle]PKKATELKHLQCLEEELKPLEEVL[hSer]LAQSKNFHLRPRDLISNINVIVLELKGSETTF[hSer]CEYADETATIVEFLNRWITFSQSIISTLT
modifications: lactam N-30
For the molecule B19, the Average EC50, HEK-Blue IL-2R (CD122+, CD132+) reporter assay in assay [2] was 436 pM.
